Results as given in patent US20160346281A1.

Target: Myc-tagged Abl (Abl-Myc), Drosophila Abl (Drosophila melanogaster) (UniProt P00522)
Assay: cell-based or functional assay

Sequence of Myc-tagged Abl (Abl-Myc), Drosophila Abl (Drosophila melanogaster) (P00522 whole entry): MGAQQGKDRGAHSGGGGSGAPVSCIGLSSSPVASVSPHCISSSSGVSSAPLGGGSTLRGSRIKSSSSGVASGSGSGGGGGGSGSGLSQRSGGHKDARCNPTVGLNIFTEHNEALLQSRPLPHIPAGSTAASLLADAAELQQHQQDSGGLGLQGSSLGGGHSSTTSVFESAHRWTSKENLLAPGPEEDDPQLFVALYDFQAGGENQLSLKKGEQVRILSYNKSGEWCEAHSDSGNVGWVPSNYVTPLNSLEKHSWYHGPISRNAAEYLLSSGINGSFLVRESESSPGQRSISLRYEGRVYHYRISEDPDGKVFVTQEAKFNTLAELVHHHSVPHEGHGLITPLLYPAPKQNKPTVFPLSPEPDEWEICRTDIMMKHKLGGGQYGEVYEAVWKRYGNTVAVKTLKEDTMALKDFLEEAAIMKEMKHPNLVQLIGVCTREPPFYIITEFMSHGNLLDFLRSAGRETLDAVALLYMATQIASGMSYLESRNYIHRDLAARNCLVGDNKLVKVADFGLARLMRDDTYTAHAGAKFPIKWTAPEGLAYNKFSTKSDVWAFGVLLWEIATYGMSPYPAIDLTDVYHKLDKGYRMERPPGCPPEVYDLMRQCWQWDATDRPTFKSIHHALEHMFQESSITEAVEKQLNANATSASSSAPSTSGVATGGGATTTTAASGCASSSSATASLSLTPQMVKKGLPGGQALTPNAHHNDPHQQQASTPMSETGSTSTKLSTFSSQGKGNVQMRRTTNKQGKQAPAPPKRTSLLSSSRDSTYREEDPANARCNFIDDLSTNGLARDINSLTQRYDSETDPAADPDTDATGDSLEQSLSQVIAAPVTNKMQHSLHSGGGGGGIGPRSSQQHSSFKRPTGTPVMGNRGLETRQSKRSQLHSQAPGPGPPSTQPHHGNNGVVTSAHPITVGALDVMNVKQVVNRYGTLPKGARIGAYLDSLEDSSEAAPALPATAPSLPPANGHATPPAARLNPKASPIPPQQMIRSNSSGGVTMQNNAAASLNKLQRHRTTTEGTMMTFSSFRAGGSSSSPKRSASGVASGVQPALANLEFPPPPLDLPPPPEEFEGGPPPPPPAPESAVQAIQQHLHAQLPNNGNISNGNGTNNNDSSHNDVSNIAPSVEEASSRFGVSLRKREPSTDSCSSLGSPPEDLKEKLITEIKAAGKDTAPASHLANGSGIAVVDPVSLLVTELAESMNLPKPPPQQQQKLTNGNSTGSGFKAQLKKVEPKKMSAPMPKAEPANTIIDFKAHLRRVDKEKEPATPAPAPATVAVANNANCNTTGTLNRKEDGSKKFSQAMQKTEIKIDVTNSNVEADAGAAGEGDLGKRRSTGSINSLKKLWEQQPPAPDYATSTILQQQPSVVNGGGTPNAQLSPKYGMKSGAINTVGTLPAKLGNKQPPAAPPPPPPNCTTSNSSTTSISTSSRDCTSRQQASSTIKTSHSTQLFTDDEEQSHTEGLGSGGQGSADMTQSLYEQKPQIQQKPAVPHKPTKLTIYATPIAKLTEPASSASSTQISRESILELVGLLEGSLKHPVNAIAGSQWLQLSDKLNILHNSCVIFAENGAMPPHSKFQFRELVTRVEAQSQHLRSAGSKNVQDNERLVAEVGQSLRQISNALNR

- Abl kinase activation (anti-phospho-Y412-Abl blot intensity normalized to total Abl-Myc, S2 cell lysates): 2.6 fold
Substance: GFP-tagged Dscam (Dscam[3.36.25.2]::GFP) (receptor)
